The record followed here is a protein production outcome set (Wang et al. 2014).

The data set is described as follows: label from the status in PepcDB records.

On to “MNWRRYNGRKKLAIIVPIYNVADYLKDCLNSLLKQGVPEKELQIILVDEGSTDNSAQIAQKFVEKYPNFFELHQFENAGLGAARNRGTRLARARFITYVDSDDIVAPNSYEYMLGILERTGSQIITGNVHRFNSKKEWLNNIHARSHLGDFENTSLKEHPELIWDSTSWNKIFCLDFLKENNLYFPEGVLYEDIPMINPAFAAAKSIDIVKRMVYLWRAREGSITESSTDAKAVLDRITITEIALAGLKKYNAPNEILDILYLKSLNLGIISMLRKEKYEYISLERKQELFNSLKEYLEKFPSDTLYQAKFDKLIYFDKVLKAKTQEEFDEITSKYLKNEIGFSGYWNDAGQYVLKSDYSDLEKIVTSDDLEIHPKIEEVVFEDDSLKIQGYFYAKYSDMSAPENVKILGISALSDDGNTINEIVGEKRNFENQRITAKFGYNLNHFVKDGADFNYDYSGYELKIPLNHLEFETTNSLAFVLEVEIDGLKFEVPIKNPISGDKPRPKVGLSNAQVFSVSYKTDWSLVLSLKERSVEELYFSEDGKELRIKGNATKIALKSGKTKLPLKLVGGRVMISQAVQEKIKSFDKSVFHWWQFITYVNGKEKSIYYSGFPKNFQNDSNLEILFSNNGVATLGISYLYPLVEKLQVEENVLKLAFSLKGWMTEATKVQIVADPTLSMIWETEKMNENLYQLSLPLTLDGFSDKEWLNFHVRLTFNDGYQTNELLRWGKKEFALKNEWVSANGIGWFFRSVEQKEHGAFAIKRTADRVFQEKVGNLEYVLQEKYQNWLKEPVLNDYIMMSSFWGRNNHFNDNPEALYRYIEKNYPNMTTIIVLKDAIRSYPEYPNAKIVSYGTADYWYYLARSKYFVNNVNFTEPPRIKREEQIEIQTMHGTPLKTLGFDVLGDWKDSTYNEVLRKNGNWDYLTVPSDWVANYALKAFRVSPQIIKSGYPRNDKLFIDYKM”, for which the protein production result is recorded as “failed”.
Regarding “MNYDRYYTCDLVNGEGVRVTLFVTGCAHACDGCHNRSTWDRKSGRPFTPEAREELLRHCASHDGLSLSGGDPLLPANRDEILALCRMFKQRYPQKNIWLWTGYDYEEVRELEILQFVDVLIDGRYRQDLPTSKPWRGSDNQRLIRLGAGSGAAVAAVGAADVIAFEA”, the protein production result is reported as “failed”.
The result for “MNYFLMIILGVLGAESRFAIELTIDNSAYPYGTLIINMIGCFLLGFMYYFFVEAKKTINQLVAVVSTGFVGSFTTFSTFELEIFKMFQLDQYLKAISYFFVTMLSGLLFVFLGYCLSKLIIIKRKENK” reads “failed”.
To “MNYKLTLHPGSNPVEEFTSIPHGVTSLDLSLNNLYSISTVELIQAFANTPASVTSLNLSGNSLGFKNSDELVQILAAIPANVTSLNLSGNFLSYKSSDELVKTLAAIPFTITVLDLGWNDFSSKSSSEFKQAFSNLPASITSLNLRGNDLGIKSSDELIQILAAIPANVNSLNLRGNNLASKNCAELAKFLASIPASVTSLDLSANLLGLKSYAELAYIFSSIPNHVVSLNLCLNCLHGPSLENLKLLKDSLKHLQTVYLDYDIVKNMSKEQCKALGAAFPNIQKIILVDKNGKEIHPSHSIPISNLIRELSGKADVPSLEHHHHHH” belongs “not failed”.
Consider “MNYPAENFTKRFLSSLAQVMLQSNTVTGFLFLVGIGLNSPTMLLGCILAILSSLAVAKLFQYDSNCVTKGFYGFNAALVGIAVFSLLPLSFISLVLVLLGGAFSALLMHVMITKIPSIPALTTPFILSTWTIVLIIDSVGLADPMSGSFTGSISPTLIDSLHGVLRGVGQVMLQDSWLSGAVFCCALLFSSYKTAVWAILGSLIGLLVATTFGFSQEKAMMGLYGFNGCLVAIALVDRYPNKYWLIILAILFSVLFTRVFEMIAIPAFTAPFVMTTWLMIGIVKLKADFD”, for which the protein production entry was “failed”.
As to “MNYPKAILLSLALLAMHSLNAEVVTYPAGVGVKTLNDFSVEVRQGSGPWLPVDVYPVKVDRVDEKGHNVEVASIAYFDFDGMVDVRVISNKERVNSVRVRPLSYKITPDCVGDTVTFSLSRPRNLSVEVNGDIFHNLHLFANPIDKFRPSDKEIQRALKKKKGSNLIYFGPGVHNLPNDTLFVPSGTTVYIDGGARVYGNIFTEGAHDVNIFGRGEVHPDGRGAGVWVRRSKNVRIDGIVVSQLPIGQCDSVELTNVKSISYYGWGDGMDVFSSSNVILDGVFCRNSDDCAAVYASTQGFKGGSNNVLVKNATLWADVAHPINIGGHGDPNGMDTVQNVTFRNIDILDQAEKQIDYQGCLAINPGDNTLVRNITFENIRIEDFRNGQLVNFRISFNPKYCVSTGRGIQNVLVKDVTYNGSGENLSIIAGYDENHKISGIRFVNLVVNGRKITDDMPGKPKWYKTGDMAGIFVGEHVENLSFE”, the protein production result was “failed”.
The result for “MNYQLFKHSDENASYVVFSSGLGGHGSFWQAQLDVFRQYFHVLIYDQEGCHASSELLADGYSFEHLALQVKQLLQQLNIVRFHFIGHALGGFIGIELAHRYASETCQLLSLTLINAWQQLDPHTLRCFTTRIALLQHAGTAAYLHAQALFLYPPLWISEHTALLEQQEAKMQSDFPPHANVLKRLNALMQYQVNTARIDTLKQLPVCLIANQDDMLVPYVQSLNLWKKLPDAQLKLLPYGGHASTVTEARQVNQLMLDFLK” reads “failed”; that for “MPAIGSAPDGSRVSFMPKAWLLLALLLLLSLPARAEEWPALQWSQGTPASGPALQALEEYAFVPRDDESRQGIRTDALLVIRDGRLLYERYAGATGPQTPHLAWSASKSLLAVLLGVAFGEGRFQLQDPAAKFYPPLEAHPDITLADLLHWASGLDWQEDYEYAPLNSSVVAMLYTRGHRDMAAFTVQQAASGPPGQVFRYSSGDSNLLAASLRGMVGEGQYADYPWRALFEPLGITQAVWERDAAGTFVASSYLYLTARDLARIGLLMQRDGRWRDRQLLPKAWVEFCRTPFRGYRANQDVAVAGGHWWLNREVDGAPRPWPDAPADTYAALGHWGQALYVLPAQRLVIVRYGDDRDGSYQHNELLKRVLAAFATPEQP”, “failed”.
Consider “MPAKVLINGYGSIGKRVADAVSMQDDMEVIGVTKTKPDFEARLAVEKGYKLFVAIPDNERVKLFEDAGIPVEGTILDIIEDADIVVDGAPKKIGKQNLENIYKPHKVKAILQGGEKAKDVEDNFNALWSYNRCYGKDYVRVVSCNTTGLCRILYAINSIADIKKARIVLVRRAADPNDDKTGPVNAITPNPVTVPSHHGPDVVSVVPEFEGKILTSAVIVPTTLMHMHTLMVEVDGDVSRDDILEAIKKTPRIITVRAEDGFSSTAKIIEYGRDLGRLRYDINELVVWEESINVLENEIFLMQAVHQESIVIPENIDCIRAMLQMEEDNFKSIEKTNKAMGIQ”, for which the protein production entry is recorded as “not failed”.
To “MPATPSLKVVHELPACTLCAGPLEDAVTVPCGHTFCRLCLPALSQMGAQSSGKILLCPLCQEEEQAETPMAPVPLGPLGETYCEEHGEKIYFFCENDAEFLCTSECRTTDGFGCA” belongs “failed”; to “MPCRGLHAIPAGPPEFPELATIYVVCGDKLNVMIDAGVTNSIMDSSFLEKLDLVILTHIHIDHIGLLPEILDRYKNAKVMIKNGFKKFLTTEDGVRRLNESSEKVLGDLYYIYGEFTKIDPDKVVEVEGGEMIDIGDGKTLKIIYTPGHAKHHISVVSDDILFTGDSGGAYFNGAVIPTTPPPLDYDNYVNSLRLQISLKPKVVGLAHGGLVSPNILEQHLDQMLGKESFDIGEIDIGGIGGEILRKQVEVNLRGLNEALGRNKKTLLEHHHHHH”, “failed”; to “MPDLTRRNFSNLLSFPMPDTRPAKAGGQPRPFFRLGVVRFGLATALALFWVGAFASTATGQRTSRTPDQLENVGVDQKLGATIPKDLSFQNEQGEPVRLSQYFDGSTPVMLTLNYHRCPQLCRIQLQKFTKSLSGMSWTAGDKFKVLTVDISPYEGPKMARKAQERYATFLDRPEETVDGWHFLTGNQAAIETLTDSVGFRYQPLPEKEKQFAHPTTIIFLSGDGTITRYFTTLDPAPGDLRTALVEASDGTVGNVVDKAFLACARFNPDSNSYSASAFKLMQYGSVLTVIVMGAALFVFWRRENEQLETAHEEGLNAMVDEQA”, “failed”.
For “MPDNEVDLLFAQLSPEDLIEWSDYLPESFTDRALAQMGERQRQRFELYDQYSENEIGRYTDHQMLVLSDKATVAQAQRFFRRIELDCNDNLFIVDEADKYLGTVRRYDIFKHEPHEPLISLLSEDSRALTANTTLLDAAEAIEHSREIELPVIDDAGELIGRVTLRAATALVREHYEAQLMATAGMDESDDLFAPILKGAQRRAVWLGINLLTAFLASATIGLFENVLSQVVALAVLMPIVASMGGIAGSQSLTLMIRGMAMGQISAGNLFSLMKNELGIGLVNGTLWAIVIGLVAGWWFADSIIGIVIGCAILINMAVAALAGVFVPMIL”, the protein production result is listed as “failed”.
As to “MPDWVTGTWLLALDWAIRLAALLWIPARTTPGAARSWLLLIGFVPVVGLPLYLLFGHPWLSRLRVERQATASQVIREQQLPLHALRWMPQADTSSAEVVPLIEREGDFMPTLGNAVELLDDYAQSLQALIAAIDAADKRVHLLYYLMFDDAVGEAVVVALERASARGVRCRVLLDAVGAKRGLRRYRKRLQDGGVQVLAVLPGGLRWRRSGRMDLRNHRKIAVLDNRVAFVGSQNLAEAGFIDGVPNRELVARVRGPVVNHLEAVFASDWFTETGERLDVWPDAPVCEANIATQLLPSGPAYPFENARDAINAVIHLARRKVVLVTPYFVPDEALLSALRIAPVSGVDVQLILSEHNNQRLAAWAQEAYFEELLRCGVKIALYRPHFLHAKHLSMDEDIALVGSINLDIRSFALNAEIGMLCYDTGVVQRLREIEQDYLANARQLTLEQWRRRPAWRRSREGIARLADALM”, the protein production result is “failed”.
To “MPDYGHDLLFGAVLTPDAQNPRAVLESARLADRSGLDLVSVPDHPYRPDFLDAWTLLSVIAAHTERVRVFPNVANLPLRPPAGLARAAAALDVLSGGRVELGLGAGGYWDAIAGEGQPRRTPGEAVEALAEAIDVIRALWASGGAGATVDGTHYRLDGARPGPPAAHPLGIWVGALGPRMLRLIGRTADGWLPSATRVPPAELAVGQRIVDEAAIAAGRDPRAVRRLYNLP” belongs “failed”; to “MPEAGLAQLVPLTAVALLAGVVDAIAGGGGLLTLPALLWTGLPPHLALGTNKGQSVFGSFAALVRFSRAGMVDGRRARLTFPLGLAGSLAGAGLVLLVPPATLRPVVLALLAFAALFVGLRRGPPARPDGGPRPAAPVVAGAIALAIGAYDGFFGPGTGTFLIVAFVALLGDGLAHASAGAKVVNFASNLAAVTLFSIKGVVVWRIAVPMAVAQLAGGWIGAHLAVRRGDALVRRTAVLVTLALAVKLAWDMRS”, “failed”; to “MPERIIREDVKIGDGMMIDSDSQDDCVTKAVRTVEQKLTTEEHEIVMVYDYVSGSSGSSSTPSFTLTPYSPISYESDQEDYEDPPISPYISEAVVHSPDSTFALLWEGTSPILHFAADMRADAIPSVGDGTTSGIHIPYCFIYGEDGRYPQDCRF”, “failed”.
Turning to “MPEVEDMPSIALHSVMASPNAEYVRWKAHGDFISQLNYYDSMKAVISSSNHEPTALVIGFTVGATDVKEKLNEIRNVGKNVMMGSSSASLALAKRQAECNRTVFRVHKGVKAFSFCRKKNLLATGGLDRIVRVWNPYLPGKPTGVLRGHMAPVMYVHVASEENKVFSVSADNTVKIWDLETHSCCCTVSSKASGIKGELTACLYLPGPRALCVATGTLALFHLKAGSVPEPHLLRSHQEPVVCCRYNPAFRQVVSCCEASVVKVWDLETGRWVSEFIGNAGITCLAFDSSGRRLVTGGRDGDLKIWSYNNGHCLHTLQHDENQNEVCDCTYMEVNRNGCVIAVGWDRRINVYFDIPRDFHHFRKPQPHWQDDLNHGHKEDILCVAQCPPFLLATSSYDGEIIVWNVISGHMYCKLNTPSPMDPREGPDRSVSRLTFLKTRLTKLDSTAASLISNGPGGSVSFWKLFSGSGLIANFTPAREKAQVSGIVVTSGDTVAYLADQHGFIYVYDIQEYGLWGAELQPPNSTHSWEVESQKHSFLKTFDVSEGAGKGLSSSLDCTVRLCSKDGAYIGTFGQNRPWDVYTPDSWGHPRVPLEILTDPQSMPTHLVLETDVPAGCSGGRQEQGHMTEEKVLFETEKTHNPPSPEGPVVEVEVKADKSQWSAFSHDRLLLSSKTLMQDKRLLSARRKPCWKVPELKWPSIYQALQCHELDFVSALREKPDLSVTGFDLLPDYRFPRGPTEYRQCSAELLFRSLPHAAHISSVPQAPAKLWGHKQN”, the protein production entry is recorded as “failed”.
